Experimental data from US20250057918A1 (YALE UNIVERSITY, published 2025).
Read-outs that look alike come from different tables or passages of the source.

How the values were obtained:
[1] = biological target: T1, mouse IL-18BP (amino acids 31-194) (mouse, UniProt Q9Z0M9 29-193, biotinylated on the AviTag (BirA ligase)); test: on-yeast isotherms; KD IL-18BP / KD IL-18Rα (10 µM used for NBD); on-yeast isotherms; 10 µM put in for NBD
T1 construct: Secreted decoy receptor; made in Expi293 cells (H7 signal peptide); the stated range is the same as for the human protein; also called mIL-18BP
T1 sequence: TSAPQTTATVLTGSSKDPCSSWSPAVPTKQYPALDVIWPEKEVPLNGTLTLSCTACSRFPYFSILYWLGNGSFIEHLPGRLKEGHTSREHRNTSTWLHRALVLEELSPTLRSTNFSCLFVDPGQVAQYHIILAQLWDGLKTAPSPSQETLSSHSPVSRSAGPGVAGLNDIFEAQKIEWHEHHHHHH

[2] = biological target: T2, mouse IL-18Rα ectodomain (amino acids 19-329) (mouse, UniProt Q61098 19-329, biotinylated on the AviTag (BirA ligase)); test: flow cytometry, mIL-18Rα titrated on yeast-displayed murine IL-18 variant (binding isotherm, %Max)
T2 construct: range 19-329; Secreted from Expi293 cells (H7 signal peptide); also called mIL-18Rα; Ra
T2 sequence: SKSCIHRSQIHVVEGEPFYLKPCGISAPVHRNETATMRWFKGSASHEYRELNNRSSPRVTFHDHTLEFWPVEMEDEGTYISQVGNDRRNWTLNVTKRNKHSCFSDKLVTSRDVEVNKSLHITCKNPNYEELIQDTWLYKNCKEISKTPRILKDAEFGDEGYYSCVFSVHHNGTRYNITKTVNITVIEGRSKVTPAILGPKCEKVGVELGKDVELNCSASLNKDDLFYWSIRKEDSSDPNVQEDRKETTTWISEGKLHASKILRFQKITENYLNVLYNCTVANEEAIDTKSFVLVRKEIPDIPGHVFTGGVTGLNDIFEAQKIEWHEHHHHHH

[3] = biological target: T1, mouse IL-18BP (amino acids 31-194); test: SPR; KD BP / KD Ra normalized to WT IL-18; upper end tied to mA7 by Table 9
[4] = biological target: T1, mouse IL-18BP (amino acids 31-194); test: SPR; KD IL-18BP / KD IL-18Rα; SPR; ratio of two KDs
Experimental: By contrast, very little binding is observed with the same variants and mIL-18BP (right). (FIG. 11B) Representative surface plasmon resonance sensorgrams between immobilized biotinylated mIL-18BP and the murine DR-IL-18 variants.
(§1) Experiments were conducted using a Biacore™ T100 (Protein analysis interaction system) and carried out at 25° C. Biotinylated IL-18Rα or TL-18BP were immobilized onto a Biacore™ biotin capture chip (Series S CAP sensor chip, GE Healthcare) to yield an Rmax of ˜50 RU (IL-18Rα) or ˜10 RU (IL-18BP). Measurements were made with serial dilutions of the IL-18 variants in HEPES buffered Saline-P+ buffer (10 mM HEPES pH 7.4, 150 mM NaCl, 0.005% surfactant P20). The surface was regenerated by three 60-see injections of regeneration buffer (3/4 (v/v) 8M guanidine hydrochloride with 1/4 (v/v) 1M sodium hydroxide). Experiments were performed in multiple channels simultaneously for increased observations. All data were analyzed with the Biacore™ T100 evaluation software version 2.0 with a 1:1 Langmuir binding model.

[5] = biological target: T3, human IL-18BP (amino acids 31-194) (human, UniProt O95998 31-194, biotinylated on the AviTag (BirA ligase) where immobilized or used for staining); test: on-yeast isotherms; BP/Rα KD ratio normalized to WT
T3 construct: Secreted decoy receptor; made in insect cells (gp67 signal peptide); also called hIL-18BP
T3 sequence: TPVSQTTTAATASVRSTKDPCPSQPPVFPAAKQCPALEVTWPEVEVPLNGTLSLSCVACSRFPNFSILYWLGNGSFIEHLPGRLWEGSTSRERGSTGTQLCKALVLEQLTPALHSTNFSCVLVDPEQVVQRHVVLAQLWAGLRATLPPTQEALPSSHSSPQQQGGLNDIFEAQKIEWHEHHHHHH
Experimental: (§2) Individual colonies of IL-18 yeast were grown overnight at 30° C. in SDCAA liquid media and induced in SGCAA liquid media for 1 day at 20° C. IL-18 display levels on yeast were verified by flow cytometry using an anti-cMyc tag antibody (anti-myc-PE; Cell Signaling Technologies). Receptor staining with biotinylated IL-18Rα (with or without IL-18Rβ) or biotinylated IL-18BP was performed in PBS supplemented with 0.5% BSA and 2 mM EDTA (PBE) on ice. All analysis was performed on a Sony SA3800 flow cytometer.
(§3) To additionally characterize the receptor binding activities of the DR-IL-18 variants, the cytokines were expressed recombinantly and surface plasmon resonance for IL-18Rα and IL-18BP was performed (see FIG. 5B for representative traces).

[6] = biological target: T4, IL-18 receptor (IL-18R) on HEK-Blue IL-18 reporter cells (UniProt Q13478 19-541; O95256 20-599, limits assumed); test: cell-based or functional assay
T4 sequence (looked up) 1: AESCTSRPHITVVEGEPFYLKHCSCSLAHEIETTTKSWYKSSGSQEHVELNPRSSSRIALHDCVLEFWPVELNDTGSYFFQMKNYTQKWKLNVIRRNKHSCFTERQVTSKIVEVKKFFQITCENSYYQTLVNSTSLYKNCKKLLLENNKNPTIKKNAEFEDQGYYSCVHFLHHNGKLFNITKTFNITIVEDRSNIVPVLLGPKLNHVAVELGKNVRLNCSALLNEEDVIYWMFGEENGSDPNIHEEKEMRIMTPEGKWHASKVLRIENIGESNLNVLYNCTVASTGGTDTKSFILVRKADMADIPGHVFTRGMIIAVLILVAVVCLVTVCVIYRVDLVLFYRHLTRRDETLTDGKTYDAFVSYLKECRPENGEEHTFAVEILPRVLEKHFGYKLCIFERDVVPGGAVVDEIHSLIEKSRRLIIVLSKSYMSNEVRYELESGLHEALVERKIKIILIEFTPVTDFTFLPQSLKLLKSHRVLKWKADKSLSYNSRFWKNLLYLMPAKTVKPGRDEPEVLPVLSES
T4 sequence (looked up) 2: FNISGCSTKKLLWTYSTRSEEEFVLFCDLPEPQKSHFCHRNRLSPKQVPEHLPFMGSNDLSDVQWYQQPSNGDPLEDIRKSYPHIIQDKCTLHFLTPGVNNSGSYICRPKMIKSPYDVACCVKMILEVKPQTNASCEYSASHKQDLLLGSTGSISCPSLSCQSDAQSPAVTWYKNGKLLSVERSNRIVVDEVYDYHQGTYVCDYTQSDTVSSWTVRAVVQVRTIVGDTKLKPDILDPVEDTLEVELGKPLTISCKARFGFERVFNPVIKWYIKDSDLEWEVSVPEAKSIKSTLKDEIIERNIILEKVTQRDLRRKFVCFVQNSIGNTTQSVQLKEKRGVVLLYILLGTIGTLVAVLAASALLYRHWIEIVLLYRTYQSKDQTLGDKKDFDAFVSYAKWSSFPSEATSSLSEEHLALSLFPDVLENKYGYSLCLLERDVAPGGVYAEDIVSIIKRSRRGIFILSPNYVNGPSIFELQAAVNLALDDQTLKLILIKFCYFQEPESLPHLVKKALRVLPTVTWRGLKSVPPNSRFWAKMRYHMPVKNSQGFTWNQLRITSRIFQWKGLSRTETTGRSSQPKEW

[7] = biological target: T3, human IL-18BP (amino acids 31-194); test: SPR; KD BP / KD Ra normalized to WT IL-18
[8] = biological target: T3, human IL-18BP (amino acids 31-194); test: on-yeast isotherms; KD IL-18BP / KD IL-18Rα (20 µM used for NBD)
[9] = biological target: T3, human IL-18BP (amino acids 31-194); test: SPR; KD IL-18BP / KD IL-18Rα; SPR; ratio of two KDs
Experimental: as §1, §3

[10] = biological target: T4, IL-18 receptor (IL-18R) on HEK-Blue …; test: cell-based or functional assay; remark: listed apart in the source
[11] = biological target: T3, human IL-18BP (amino acids 31-194); test: on-yeast isotherms; KD IL-18BP / KD IL-18Rα; on-yeast isotherms; ratio of two KDs
[12] = biological target: T3, human IL-18BP (amino acids 31-194); test: on-yeast isotherms; KD IL-18BP / KD IL-18Rα (20 µM used for NBD); on-yeast isotherms; 20 µM put in for NBD
Experimental: as §2, §3

[13] = biological target: T5, human IL-18Rα ectodomain (amino acids 19-329) (human, UniProt Q13478 19-329, biotinylated on the AviTag (BirA ligase)); test: on-yeast binding isotherm, flow cytometry
T5 construct: range 19-329; Secreted from insect cells (gp67 signal peptide); also called hIL-18Rα; hIL-18Ra
T5 sequence: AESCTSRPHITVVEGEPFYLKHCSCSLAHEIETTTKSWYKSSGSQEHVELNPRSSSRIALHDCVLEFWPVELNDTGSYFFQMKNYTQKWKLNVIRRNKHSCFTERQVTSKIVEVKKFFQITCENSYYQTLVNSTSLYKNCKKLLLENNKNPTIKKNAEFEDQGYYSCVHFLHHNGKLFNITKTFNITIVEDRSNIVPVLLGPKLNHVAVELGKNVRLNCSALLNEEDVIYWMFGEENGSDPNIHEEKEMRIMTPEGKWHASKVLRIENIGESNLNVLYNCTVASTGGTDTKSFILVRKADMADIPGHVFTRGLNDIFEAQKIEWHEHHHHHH
Experimental: as §2, §3

B1: mA7 (ligand)
chain: YFGRLHCTTAVIRNINDQVLFVDKRQPVFEDMTDIDQSASEPQTRLIIYAYGDNRVRGKAVTLSVKDSKMSTLSCKNKIISFEEMDPPENIDDIQSDLIFFQKRVPGHNKMEFESSLYEGHFLACQKEDDAFKLILKKKDENGDKSVMFTLTNLHQS
notes: recombinant with C-terminal hexahistidine tag in SPR
[1]
  KD ratio: IL-18BP/IL-18Rα: > 741
[2]
  EC50 (read off the curve): ~10 nM
[3]
  IL-18 BP:Ra Dissociation Constant Ratio: 3.5e+07
[4]
  KD ratio: IL-18BP/IL-18Rα: 63200

B2: 6-29 (ligand)
chain: YFGKLESKLSVIRNLNDQVLFIDQGNRPLFEDMTDSDCRDNAPRTIFIISKYSDSRARGLAVTISVKCEKISTLSCENKIISFKEMNPPDNIKDTKSDIIFFQRNVPGHGRKMQFESSSYEGYFLACEKERDLFKLILKKEDELGDRSIMFTVQNED
notes: recombinant with C-terminal hexahistidine tag in SPR and cell assays; also called h6-29; version 2.0 human DR-IL-18 variant
[5]
  Dissociation Constant Ratio normalized to WT IL-18: > 8000
[6]
  EC50 (read off the curve); HEK-Blue IL-18 SEAP reporter, OD 655 nM: ~0.9 nM
[7]
  IL-18 BP:Ra Dissociation Constant Ratio: > 7.59e+06
[8]
  KD ratio: IL-18BP/IL-18Rα: 540

B3: hCS1 (ligand)
chain: YFGKLESKLSVIRNLNDQVLFIDQGNRPLFEDMTDSDCRDNAPRTIFIISTYKDSQPRGKAVTISVKCEKISTLSCENKIISFKEMNPPDNIKDTKSDIIFFQRDVPGHKHKMQFESSSYEGYFLACEKERDLFKLILKKEDELGDRSIMFTVQNED
notes: recombinant with C-terminal hexahistidine tag in SPR and cell assays
[9]
  KD ratio: IL-18BP/IL-18Rα: 2.41
[7]
  IL-18 BP:Ra Dissociation Constant Ratio: 3020
[10]
  EC50 (read off the curve); HEK-Blue IL-18 SEAP reporter, OD 655 nM: ~4 nM
[11]
  KD ratio: IL-18BP/IL-18Rα: 300

B4: hCS4 (ligand)
chain: RFGKLESKLSVIRNLNDQVLFIDQGNRPLFEDMTDSDCRDNAPRTIFIISTYRDSQPRGKAVTISVKCEKISTLSCENKIISFKEMNPPDNIKDTKSDIIFFQRNVPGHKYKMQFESSSYEGYFLACEKERDLFKLILKKEDELGDRSIMFTVQNED
notes: as for B3
[12]
  KD ratio: IL-18BP/IL-18Rα: > 125
[9]
  KD ratio: IL-18BP/IL-18Rα: 41.8
[7]
  IL-18 BP:Ra Dissociation Constant Ratio: 32200

B5: hCS2 (ligand)
chain: YFGKLESKLSVIRNLNDQVLFIDQGNRPLFEDMTDSDCRDNAPRTIFIISTYKDKQPRAKAVTISVKCEKISTLSCENKIISFKEMNPPDNIKDTKSDIIFFQRDVPGHKHKMQFESSSYEGYFLACEKERDLFKLILKKEDELGDRSIMFTIQNED
notes: as for B1
[13]
  Kd: 91.5 nM
[8]
  KD ratio: IL-18BP/IL-18Rα: > 219
